{"source": "the DeepSol protein solubility set"}
{"experiment": "soluble on expression in E. coli; label from the status in PepcDB or PDB records"}
{"sequence": "MTKMSITVNQTVLHQLVKNVDGDSIKMESVLRDELLSITPEVEQMMLQLHQSYQNKAKAFGVFQEKSIFAQHLNRLLEQEIEFLGFSQYSTKLLADELGKYNFAESGTLILCQYNFLATDYLFIALLDSRHSMLVDEHLDIRRTEYLDITQFDIAARINLTDLQVNANSNRYLTFIKGRVGRKISDFFMDFLGAEEGLNPQVQNQCLLQAVSDYCDQGELNKEQTQAVKKQVFEYCKGQLSNGNNIELRELSDSLPTLNEQPFVVFTEKQNYGLEESIPPIRSTLKSLTKFSGSGKGVTLSFDAELLNTRIQWDPMTDTLTIKGLPPNLKDQLQKALKSENLEHHHHHH", "soluble on expression in E. coli": "soluble"}
{"sequence": "MGSDKIHHHHHHMTFNVPDVKPLINDEFAGEAPKRALSYIANKRSAGMPVAGTYCGYAPMEVIRAVGAVPAVLCAFANKTIPAAEAVLPANLCPLIKSSYGFILTDTCPFFALSDAVVAETTCDGKKKMFELIFSHRPMFVMDLPQLPDEVEARANWATMISKLKGFLENTFGTFGTSEGIEAEIQATNIKNRLMRRVFGYAEKKPPLLSWSELYELCFLAQVATTEDLLPVFKEVFERLEEREAKGIYYGAPSSPRVLVTGCPVGGDSTKVFRIIEEAGGVVVAMDSCSGMKPFIADIEEKTGNPIDSVARHYLEIPCSCMTPNTRRLTELDKALAAFQPDAVVEVVLHACHSYNIEAIKIMNYLKEKHNLPYLKIVTDYSEGDVEQIRTRVEALLESI", "soluble on expression in E. coli": "not soluble"}
{"sequence": "MFFIKDLSLNITLHPSFFGPRMKQYLKTKLLEEVEGSCTGKFGYILCVLDYDNIDIQRGRILPTDGSAEFNVKYRAVVFKPFKGEVVDGTVVSCSQHGFEVQVGPMKVFVTKHLMPQDLTFNAGSNPPSYQSSEDVITIKSRIRVKIEGCISQVSSIHAIGSIKEDYLGAI", "soluble on expression in E. coli": "soluble"}
{"sequence": "MTYPDLSRGAGPVAAGPQPTGLADLLERVLDKGLVIAGDIRVNLLDIELLTIKLRLVIASMETAQQAGIDWWTRDPWLKASESELLEENRRLREQLAQADTNGRKRIEGKESHD", "soluble on expression in E. coli": "not soluble"}
{"sequence": "MVFDRQMKRGQRDWAVRQPDFKAAQYLKEEIGWRVADKVFDLTKFNPLVLDIGCGVGHIAPHLIKENVGKIIQVDMSGGMAQSSAKCEDPEVIVERRTVDEETLDGFHENQFDLLLTSMSAHWINHLPQWMRKCHDIVKPDCPFIGSMLAEDTLYELRCSLQLAELERIGGVSSHISPFVKTQDIGGLLSSAGFDMITLDSDEIQVGYPNMFALMYDLQLMGESHCTHRRNPTIRRDVLVAAEAIYQSMYSSDGKYPATFKIVSFIGWKPGPNMPKAAKRGSQTVSLKDIGKIVEDPEMMRKMSEKDGVDKKK", "soluble on expression in E. coli": "not soluble"}
{"sequence": "MAKRKLTQNQTRRIQSNNAKTLHRHKKKEIEWSDEMLGESQEGVVVTRYSIHADVENEQGEIYRCNLRRTLSSLVVGDKVVWRKGNEQLQGVSGVIEAIHPRENEISRPDYYDGLKPIAANIDRIIIVSAVLPTLSLNIIDRYLVVCEIAGITPLIVLNKVDLLAQEQRQEIEDQLKIYQDIGYEILMISAKSGENMEKLTALLAQGTAIFVGQSGVGKSSLINHILPSVNAQVGDVSETSGLGQHTTTSSRLYHLPQGGNLIDSPGIREFGLWHLDAEQITKGYREFQYVLGTCKFRDCKHLSDPGCALREAVEQGKISPVRYDNYHRLIESLSETKSQRHFSLV", "soluble on expression in E. coli": "not soluble"}
{"sequence": "AAMTLASQIATQLLDIKAVYLKPEDPFTWASGIKSPIYTDNRVTLSYPKTRDLIENGFVETIKAHFPEVEVIAGTATAGIPHGAIIADKMTLPFAYIRSKPKDHGAGNQIEGRVLKGQKMVIIEDLISTGGSVLDAAAAASREGADVLGVVAIFTYELPKASQNFKEAGIKLITLSNYTELIAVAKLQGYITNDGLHLLKKFKEDQVNWQQ", "soluble on expression in E. coli": "soluble"}
